Test results published in article PMC5701160.

Target: PSI core complex (Haematococcus pluvialis (endogenous in strain K-0084))
Assay: estimate from pigment ratios (HPLC) of the isolated B5 fraction; from Chl a/b and Chl/Car ratios, assuming 3.4 Cars per Lhca subunit and 100 Chl a per PSI core complex

## LHCI antenna proteins
  stoichiometry N (Lhca proteins per P700): 5
